Laboratory results as given in paper PMC9518701.
Like-named read-outs stand apart in the source and are kept apart here.

Key:
[1] = biological target: SARS-CoV-2 spike protein receptor binding domain (RBD) (SARS-CoV-2, wild type (Wuhan-Hu-1 reference)) (UniProt P0DTC2); test: SPR
[2] = biological target: SARS-CoV-2 spike protein receptor binding domain (RBD) (SARS-CoV-2, wild type (Wuhan-Hu-1 reference)) (UniProt P0DTC2)
[3] = biological target: SARS-CoV-2 spike protein receptor binding domain (RBD) (SARS-CoV-2) (UniProt P0DTC2)
[4] = biological target: SARS-CoV-2 spike protein receptor binding domain (RBD) (SARS-CoV-2) (UniProt P0DTC2); remark: listed apart in the source
[5] = biological target: SARS-CoV-2 spike protein receptor binding domain (RBD) (SARS-CoV-2) (UniProt P0DTC2); remark: listed apart in the source
[6] = biological target: FcγRIIa (H131); test: SPR
[7] = biological target: FcγRIIb; test: SPR
[8] = biological target: FcγRIIa (R131); test: SPR
[9] = biological target: FcγRIIIa (V158); test: SPR
[10] = biological target: FcγRIIIa (F158); test: SPR
[11] = biological target: FcγRI; test: SPR
[12] = biological target: human neonatal Fc receptor (FcRn) (human) (UniProt P55899); test: SPR; pH 6.0
human neonatal Fc receptor (FcRn) (human), sequence (P55899 24-297, chain 1 of 2): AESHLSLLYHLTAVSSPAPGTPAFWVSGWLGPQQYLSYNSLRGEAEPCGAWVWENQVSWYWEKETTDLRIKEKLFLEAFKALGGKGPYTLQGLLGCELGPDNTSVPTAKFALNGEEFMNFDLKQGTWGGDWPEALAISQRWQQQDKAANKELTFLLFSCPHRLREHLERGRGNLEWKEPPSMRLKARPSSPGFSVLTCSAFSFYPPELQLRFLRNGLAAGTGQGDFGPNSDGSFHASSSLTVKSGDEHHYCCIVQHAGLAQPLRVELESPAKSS
human neonatal Fc receptor (FcRn) (human), sequence (partner, as listed by the source, chain 2 of 2): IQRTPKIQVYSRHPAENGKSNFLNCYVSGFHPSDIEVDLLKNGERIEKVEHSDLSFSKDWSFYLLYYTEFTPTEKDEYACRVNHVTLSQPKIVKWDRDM

amubarvimab (BRII-196) (antibody) showed a Kd [1] of 5.88 nM and an other [2] of 0.026 µg/mL.

In the case of “combination of amubarvimab and romlusevimab”, the IC50 [3] is reported as 16.4 nM, the other [4] is reported as 0.16 µg/mL and the other [5] is reported as 0.047 µg/mL.

Work on romlusevimab (BRII-198) yielded a Kd [6] of 13200 nM, a Kd [7] of 35300 nM and a Kd [8] of 23700 nM. The Kd [9] was 731 nM, the Kd [10] was 4450 nM and the Kd [11] was 2.77 nM. It also gave a Kd [12] of 0.36 nM.
